# Patent US20170106021A1, “COMPOSITIONS ENRICHED FOR HOX11+ STEM CELLS AND METHODS OF PREPARING THE SAME” (The General Hospital Corporation, priority 2014, published 2017)
# B1: granulocyte colony-stimulating factor (protein, UniProt P09919 31-207, looked up)
# Granulocyte …: TPLGPASSLPQSFLLKCLEQVRKIQGDGAALQEKLVSECATYKLCHPEELVLLGHSLGIPWAPLSSCPSQALQLAGCLSQLHSGLFLYQGLLQALEGISPELGPTLDTLQLDVADFATTIWQQMEELGMAPALQPTQGAMPAFASAFQRRAGGVLVASHLQSFLEVSYRVLRHLAQP
# notes: cytokine mobilization agent administered to donors to mobilize stem cells to peripheral blood
# Experiments:
# mobilized stem cells = details: plerixafor 240 μg/kg; cited from earlier work
# [1] = tested on: Hox11 mRNA expression in PBLs; test: Quantitative real-time PCR of Hox11 mRNA in peripheral blood lymphocytes (PBLs) of donors; format: in vivo, human; details: PBLs from G-CSF treated donors (mobilized, n=18) vs non-treated donors (non-mobilized, n=10); normalized to β-actin; p=0.000013; FIGS. 1B, 1D
# Description: (§1) All −70° C. frozen human peripheral blood cell samples used for this study were either from the Core Center of Excellence in Hematology (CCEH) at the Fred Hutchison Cancer Research Center or from Massachusetts General Hospital (MGH). These peripheral blood samples were obtained from donors not treated (non-mobilized samples) or treated with recombinant G-CSF (mobilized samples). Additional samples include peripheral blood samples from G-CSF treated donors that were further enriched for CD34+ stem cells. The non-mobilized, mobilized, and CD34+ stem cell enriched samples were obtained following human consent protocol 985.03-2 from Fred Hutchison Cancer Research Center. Additional fresh peripheral blood lymphocytes (PBLs) that were used to standardize the mRNA expressions of the frozen PBLs samples were obtained following human consent protocol MGH-2001P001379 from MGH, which involved the obligatory informed consent of all subjects.
# (§2) Peripheral blood lymphocytes (PBLs) isolated from peripheral blood samples through leukapheresis were thawed in 37° C. water bath and washed with PBS+1% FBS twice. […] Quantitative real-time PCR was performed using Power SYBR Green reagent (Applied Biosystems, Foster City, Calif.) and the 7000 Real-Time PCR System.
# (§3) Relative mRNA expression was calculated using a comparative count method (ddCT method). […]
# [2] = tested on: CD34 mRNA expression in PBLs; test: Quantitative real-time PCR of CD34 mRNA in peripheral blood lymphocytes (PBLs) of donors; format: in vivo, human; details: PBLs from G-CSF treated donors (mobilized, n=18) vs non-treated donors (non-mobilized, n=10); normalized to β-actin; p=0.02; FIGS. 1A, 1C
# Description: as §1, §2, §3
Molecule,time at which the number of mobilized stem cells peaks after administration (mobilized stem cells),Hox11 mRNA expression (relative quantity) [1],CD34 mRNA expression (relative quantity) [2]
c1cc(CN2CCCNCCNCCCNCC2)ccc1CN1CCCNCCNCCCNCC1 [plerixafor],4 to 10 h,,
B1,,exclusively found in PBLs isolated from mobilized peripheral blood samples,exclusively found in PBLs isolated from mobilized peripheral blood samples
